Key:
I-SceI = assay: cell_activity; conditions: homologous recombination; about 2.5-fold fewer broken ends than wild-type core RAG
[1] = biological target: T1, RAG-1/RAG-2 core, wild type (Mus musculus, UniProt P15919;P21784 P15919:330-1040,P21784:1-387); assay: cell_activity; conditions: homologous recombination, extrachromosomal; cleavage seen by Southern blot (FIG. 3C)
T1 sequence 1: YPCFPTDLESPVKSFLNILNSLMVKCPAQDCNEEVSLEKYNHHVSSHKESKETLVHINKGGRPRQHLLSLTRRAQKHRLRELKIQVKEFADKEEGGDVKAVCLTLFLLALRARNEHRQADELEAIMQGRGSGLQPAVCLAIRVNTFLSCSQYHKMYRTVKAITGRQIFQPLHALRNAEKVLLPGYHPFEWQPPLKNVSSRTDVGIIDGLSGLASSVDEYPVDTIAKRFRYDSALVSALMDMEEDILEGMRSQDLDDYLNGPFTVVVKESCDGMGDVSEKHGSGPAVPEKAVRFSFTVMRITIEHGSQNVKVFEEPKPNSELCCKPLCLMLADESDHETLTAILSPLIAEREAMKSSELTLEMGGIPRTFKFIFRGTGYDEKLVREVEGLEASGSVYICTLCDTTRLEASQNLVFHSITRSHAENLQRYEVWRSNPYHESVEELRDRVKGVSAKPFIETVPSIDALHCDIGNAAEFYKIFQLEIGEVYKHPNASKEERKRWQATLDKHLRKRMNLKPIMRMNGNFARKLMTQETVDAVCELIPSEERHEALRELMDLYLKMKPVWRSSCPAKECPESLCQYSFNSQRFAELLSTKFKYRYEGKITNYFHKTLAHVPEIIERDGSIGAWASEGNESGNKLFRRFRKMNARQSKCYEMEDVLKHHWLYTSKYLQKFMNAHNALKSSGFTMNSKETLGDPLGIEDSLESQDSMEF
T1 sequence 2: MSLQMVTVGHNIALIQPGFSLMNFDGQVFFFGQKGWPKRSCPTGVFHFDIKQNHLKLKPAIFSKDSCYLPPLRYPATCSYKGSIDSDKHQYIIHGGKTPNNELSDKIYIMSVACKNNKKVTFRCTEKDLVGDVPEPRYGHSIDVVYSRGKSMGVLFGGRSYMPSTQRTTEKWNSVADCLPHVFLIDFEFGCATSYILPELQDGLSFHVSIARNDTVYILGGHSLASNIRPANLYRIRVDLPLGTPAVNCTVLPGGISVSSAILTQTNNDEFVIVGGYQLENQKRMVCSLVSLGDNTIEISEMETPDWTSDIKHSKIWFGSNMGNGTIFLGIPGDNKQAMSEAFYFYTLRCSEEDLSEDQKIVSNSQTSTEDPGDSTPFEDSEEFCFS

[2] = biological target: T2, RAG-1 R838A/K839A/R840A core/RAG-2 core RAG-1 R838A/K839A/R840A (Mus musculus) (UniProt P15919+P21784); assay: cell_activity; conditions: homologous recombination; signal ends 2.5-fold lower than wild type (FIG. 3C)
T2 sequence 1: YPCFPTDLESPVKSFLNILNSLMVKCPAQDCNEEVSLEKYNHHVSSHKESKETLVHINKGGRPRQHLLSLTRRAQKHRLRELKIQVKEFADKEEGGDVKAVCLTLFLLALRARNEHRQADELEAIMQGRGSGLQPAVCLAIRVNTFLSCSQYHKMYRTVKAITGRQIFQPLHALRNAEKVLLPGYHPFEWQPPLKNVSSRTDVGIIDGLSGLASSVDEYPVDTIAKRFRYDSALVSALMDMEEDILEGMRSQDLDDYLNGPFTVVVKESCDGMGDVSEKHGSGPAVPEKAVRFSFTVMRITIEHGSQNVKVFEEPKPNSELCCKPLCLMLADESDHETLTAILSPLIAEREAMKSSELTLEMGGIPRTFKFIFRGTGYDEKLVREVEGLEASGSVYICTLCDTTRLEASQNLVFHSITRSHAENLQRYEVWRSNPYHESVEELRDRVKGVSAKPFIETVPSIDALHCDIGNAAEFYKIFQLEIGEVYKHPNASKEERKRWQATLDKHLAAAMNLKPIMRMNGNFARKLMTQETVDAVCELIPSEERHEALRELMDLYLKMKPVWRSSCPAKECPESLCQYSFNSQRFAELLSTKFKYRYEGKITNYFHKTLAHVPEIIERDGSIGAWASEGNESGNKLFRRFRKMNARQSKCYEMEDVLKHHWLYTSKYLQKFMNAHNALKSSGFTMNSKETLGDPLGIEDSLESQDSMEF
T2 sequence 2: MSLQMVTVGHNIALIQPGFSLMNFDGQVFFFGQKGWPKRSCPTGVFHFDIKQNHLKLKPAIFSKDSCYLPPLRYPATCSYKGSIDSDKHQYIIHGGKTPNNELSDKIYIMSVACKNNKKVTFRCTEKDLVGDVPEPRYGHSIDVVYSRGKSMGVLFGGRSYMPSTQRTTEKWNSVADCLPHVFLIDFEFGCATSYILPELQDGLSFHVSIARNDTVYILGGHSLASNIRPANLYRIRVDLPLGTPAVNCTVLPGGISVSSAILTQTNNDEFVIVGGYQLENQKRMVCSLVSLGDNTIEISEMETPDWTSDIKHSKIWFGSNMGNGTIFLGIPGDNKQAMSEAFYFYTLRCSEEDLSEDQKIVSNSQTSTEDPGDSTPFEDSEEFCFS

RAG-1/RAG-2 full-length = RAG-1/RAG-2 full-length (UniProt P15919;P21784 P15919:1-1040,P21784:1-527); assay: cell_activity; homologous recombination, integrated single 12-RSS substrate; conditions: chain copies: 2,2
Protocol: (§1) Relative stimulation is calculated by dividing the percentage of CFP-positive cells of experimental (nuclease-containing) transfections by the percentage of CFP-positive cells present in the DDE RAG mutant expressing transfection (negative control). It is important to maintain constant (DNA) in each transfection because increases in DNA (including non-substrate molecules) nonspecifically stimulate homologous recombination, as recently reported (Hostager et al., 2003). Experiments have been repeated over a dozen times on three different flow cytometers; FIGS. 3, 4, 6, and 7 show data from five experiments on the Becton Dickinson LSRII.
(§2) The next set of experiments took a complementary approach. Instead of using nick-only RAG proteins, a nick-only substrate was used (i.e., a single 12-RSS, which readily undergoes nicking in vitro (Cuomo et al., 1996; Ramsden et al., 1996) but yields very poor DSB formation in vivo (Steen et al., 1997)). […] Even when the nick-only mutants are assayed on the single RSS substrate, they are able to stimulate homologous recombination as efficiently as the full-length or core wild-type RAG proteins (FIG. 7). […]

[3] = biological target: T1, RAG-1/RAG-2 core, wild type; assay: cell_activity; homologous recombination, integrated single 12-RSS substrate; robust also for full-length RAG; conditions: tags: GST-RAG-1 core (pEBG-1DN) and RAG-2 core (pMal-1 vector); chain copies: 2,2
Protocol: as §1, §2

I-SceI site substrate
activity (fold over wild-type core RAG) (I-SceI): 9

SE substrate (pJH289 recombination zone, 12/23 RSS pair)
activity (fold over DDE) [1]: 13
activity (fold over DDE) [2]: 205

B1: 12-RSS substrate (dsDNA)
DNA 1: CACAGTGCTACAGACTGGAACAAAAACC
DNA 2: GGTTTTTGTTCCAGTCTGTAGCACTGTG
activity (RAG-1/RAG-2 full-length): 15 fold over DDE
activity [3]: 15 fold over DDE

From patent publication US20050069921, “Compositions, kits, and methods for stimulation of homologous recombination” (published 2005)
